Ends that are not written are not given here.

In assay [1] the target is epitope-tagged neurokinin-1 receptor (NK1R) with three epitope tags (alfa, 6e, BC2) inserted into the extracellular N-terminus (UniProt P25103).
Assay [2] has the same target. This is another data set of the same source.
The target is the same in assay [3]. This is another data set of the same source.
Assay [4] has the same target. The source holds these as a separate data set.
For assay [5], the target named is T1, neurokinin-1 receptor wild-type, lacking epitope tags (Homo sapiens, UniProt P25103).
T1 construct: also called NK1R WT; NK1R wild-type; source: HEK293, stably transfected clonal line, on live cells
T1 sequence (P25103 whole entry): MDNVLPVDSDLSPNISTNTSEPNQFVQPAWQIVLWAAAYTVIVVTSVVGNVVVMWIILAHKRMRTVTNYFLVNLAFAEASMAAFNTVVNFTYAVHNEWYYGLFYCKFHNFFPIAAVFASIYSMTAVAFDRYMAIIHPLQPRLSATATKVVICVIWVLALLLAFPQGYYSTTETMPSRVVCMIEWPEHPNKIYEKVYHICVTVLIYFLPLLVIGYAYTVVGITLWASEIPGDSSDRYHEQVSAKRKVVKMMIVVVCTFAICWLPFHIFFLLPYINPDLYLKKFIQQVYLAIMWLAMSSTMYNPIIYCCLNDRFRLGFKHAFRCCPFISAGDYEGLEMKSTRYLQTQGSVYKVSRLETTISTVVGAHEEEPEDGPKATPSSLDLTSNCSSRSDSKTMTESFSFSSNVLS
In words: flow cytometry on cells; live HEK293 cells expressing the receptor, on ice 20 min in PBS with 2% BSA with biotin-functionalized nanobodies (0.1 pM – 1 μM); detected with APC-streptavidin; median fluorescence intensity. The conditions noted are these: one partner purified. (A flow cytometer gives signals particle by particle.)

Nb_(alfa)-SP_(6–11) conjugate: in assay [1], the Gq activation (TRUPATH BRET), full efficacy; reduction in potency (EC50) relative to the comparator peptide G3SP (6–11) was above 60 fold and the Gq activation (TRUPATH BRET); difference in EC50 relative to SP (6–11) is below 4 fold.
The molecule Nb_(alfa)-NKA conjugate had a Gs-mediated transcription (luciferase reporter, 35 nM, 17 hours), fold against NKA in assay [2] above 5 fold. Moreover, the Gq activation (TRUPATH BRET), full efficacy; reduction in potency (EC50) relative to the comparator peptide in assay [1] is below 6 fold. For the same molecule, the Gq-mediated transcriptional output (luciferase reporter, 35 nM, 17 hours), fold against G3NKA in assay [3] was above 2 fold.
Take NbGFP-NKA conjugate (negative control): the Gq activation (TRUPATH BRET), full efficacy; reduction in potency (EC50) relative to the comparator peptide in assay [1] is below 6 fold.
For “NbGFP-SP_(6–11) conjugate (negative control)”, in assay [1], the Gq activation (TRUPATH BRET), full efficacy; reduction in potency (EC50) relative to the comparator peptide G3SP (6–11) is above 60 fold and the Gq activation (TRUPATH BRET); difference in EC50 relative to SP (6–11) was below 4 fold.
As to “SP_(6–11), truncated version of Substance P (peptide)”, the signaling through the Gq pathway (TRUPATH BRET), EC50 in assay [4] amounted to 27.5 nM.

B1: Nb6e, biotin-labeled (VHH)
VHH: QVQLQESGGGLVQPGGSLRLSCAASGFVFENSAMAWYRQAPGKERELIAVIGTTFIKLAESVKGRFTISRDNAKSTVYLQMNNLKPEDTAVYYCSKSGAYWGQGTQVTVSS
notes: sortase A recognition motif at the C-terminus (LPETGG in the methods); if by sortagging, the His tag would be lost; source: E. coli BL21(DE3), purified (nickel-NTA, size exclusion chromatography)
Take B1: in assay [5], the binding result is on record as “no binding (tested: 1 μM)”.

B2: NbBC2, biotin-labeled (VHH)
VHH: QVQLVESGGGLVQPGGSLTLSCTASGFTLDHYDIGWFRQAPGKEREGVSCINNSDDDTYYADSVKGRFTIFMNNAKDTVYLQMNSLKPEDTAIYYCAEARGCKRGRYEYDFWGQGTQVTVSS
notes: as for B1
With B2, in assay [5], the binding result is given as “no binding (tested: 1 μM)”.

B3: Nb_(alfa), biotin-labeled (VHH)
VHH: EVQLQESGGGLVQPGGSLRLSCTASGVTISALNAMAMGWYRQAPGERRVMVAAVSERGNAMYRESVQGRFTVTRDFTNKMVSLQMDNLKPEDTAVYYCHVLEDRVDSFHDYWGQGTQVTVSS
notes: as for B1
Consider B3, for which the binding result in assay [5] is given as “no binding (tested: 1 μM)”.

B4: NbGFP, biotin-labeled (negative control nanobody that targets GFP) (VHH)
VHH: QVQLQESGGALVQPGGSLRLSCAASGFPVNRYSMRWYRQAPGKEREWVAGMSSAGDRSSYEDSVKGRFTISRDDARNTVYLQMNSLKPEDTAVYYCNVNVGFEYWGQGTQVTVSS
notes: nanobody NbGFP against GFP; sortase A recognition motif at the C-terminus (LPETGG in the methods); if by sortagging, the His tag would be lost; source: E. coli BL21(DE3), purified (nickel-NTA, size exclusion chromatography)
Consider B4, for which the binding result in assay [5] is recorded as “no binding (tested: 1 μM)”.
In assay [4], GGGQFFGLM-NH2 [G3SP_(6–11), SP_(6–11) with an N-terminal triglycine extension] registered a signaling through the Gq pathway (TRUPATH BRET), EC50 of 0.3 nM.

The record behind these values is paper doi:10.1101/2023.10.08.561411, “Semi-synthetic nanobody-ligand conjugates exhibit tunable signaling properties and enhanced transcriptional outputs at neurokinin receptor-1” (bioRxiv, 2023).
